Data on nine molecules can be found in paper PMC3962490, “The Yeast Ess1 Prolyl Isomerase Controls Swi6 and Whi5 Nuclear Localization” (G3: Genes|Genomes|Genetics, 2014).

B1: Whi5-NES-P peptide (peptide)
peptide: Biotin-GGSGGFL[pS]P[pS]PRLR[pS]PPT
notes: flexible linker; Whi5, S. cerevisiae, residues 152-164 (portion of the nuclear export signal); By the printed limits the phosphoserines are Ser154, Ser156 and Ser161; also called phosphorylated Whi5-NES peptide; Whi5 phospho-peptide; source: synthetic peptide (NEOBioLab), HPLC purified >95%
B2: Recombinant S. cerevisiae Ess1 protein (enzyme, UniProt P22696 1-170, looked up)
chain: MPSDVASRTGLPTPWTVRYSKSKKREYFFNPETKHSQWEEPEGTNKDQLHKHLRDHPVRVRCLHILIKHKDSRRPASHRSENITISKQDATDELKTLITRLDDDSKTNSFEALAKERSDCSSYKRGGDLGWFGRGEMQPSFEDAAFQLKVGEVSDIVESGSGVHVIKRVG
notes: Ess1 peptidyl prolyl cis/trans isomerase, S. cerevisiae; also called purified Ess1 protein; Ess1 prolyl isomerase; source: Escherichia coli, purified as described (Li et al. 2005)
B3: Swi6-NLS-P peptide (peptide)
peptide: Biotin-GGSGGSRELG[pS]PLKK
notes: flexible linker ([Gly-Gly-Ser]2); By the printed limits the phosphoserine is Ser160; also called phosphorylated Swi6-NLS peptide; phospho-Swi6 peptide; source: synthetic peptide (NEOBioLab), HPLC purified >95%
B4: Whi5-NLS peptide (unphosphorylated) (peptide)
peptide: Biotin-GGSGGTPSPPSPPGI
notes: flexible linker; source: synthetic peptide (NEOBioLab), HPLC purified >95%
B5: Whi5-NES peptide (unphosphorylated) (peptide)
peptide: Biotin-GGSGGFLSPSPRLRSPPT
notes: flexible linker; Whi5, S. cerevisiae, residues 152-164 (portion of the nuclear export signal); source: synthetic peptide (NEOBioLab), HPLC purified >95%
B6: Swi6-NLS peptide (unphosphorylated) (peptide)
peptide: Biotin-GGSGGSRELGSPLKK
notes: flexible linker ([Gly-Gly-Ser]2); source: synthetic peptide (NEOBioLab), HPLC purified >95%
B7: CTD-P peptide (phosphorylated peptide corresponding to the CTD of RNAPII) (peptide)
peptide: Biotin-GGSGGSYSPT[pS]PSYS
notes: flexible linker ([Gly-Gly-Ser]2); based on the consensus heptapeptide repeat in the carboxy-terminal domain (CTD) of Rpb1, largest subunit of RNA polymerase II; The phosphoserine is Ser5 of the heptad YSPTSPS; also called phospho-CTD peptide; phosphorylated CTD peptide; source: synthetic peptide (NEOBioLab), HPLC purified >95%
B8: Whi5-NLS-P peptide (peptide)
peptide: Biotin-GGSGGTP[pS]PP[pS]PPGI
notes: flexible linker; By the printed limits the phosphoserines are Ser59 and Ser62; also called phosphorylated Whi5-NLS peptide; Whi5 phospho-peptide; source: synthetic peptide (NEOBioLab), HPLC purified >95%
B9: CTD peptide (unphosphorylated) (peptide)
peptide: Biotin-GGSGGSYSPTSPSYS
notes: flexible linker ([Gly-Gly-Ser]2); based on the consensus heptapeptide repeat in the carboxy-terminal domain (CTD) of Rpb1, largest subunit of RNA polymerase II; also called unphosphorylated CTD peptide; unphosphorylated CTD control peptide; source: synthetic peptide (NEOBioLab), HPLC purified >95%

Holding throughout (assay): BLI; Octet RED, 24°; N-terminally biotinylated peptides immobilised on streptavidin biosensors; Ess1 in solution (3, 10, 30 μM); 20 mM Tris-HCl pH 8.0, 1 mg/mL BSA; no-peptide sensor subtracted; apparent dissociation constants (Kapp) from kinetic and equilibrium data, considering only the predominant faster-dissociating signal; for unphosphorylated peptides Kapp estimated from the signal at 30 μM Ess1
Conditions in all cases: both partners purified

For assay [1], the target named is B2.
The assay “Whi5-NES-P peptide” deals with B1.
The target in assay [2] is B7.
The assay “Swi6-NLS-P peptide” has as its target B3.
For the assay “Whi5-NLS-P peptide”, the target named is B8.
Assay [3] has as its target B2. This is another data set of the same source.

For orientation: koff means the rate constant with which the complex falls apart.

Non-standard residues stand in square brackets, D forms with d. No end group written: not given here. *: point of attachment. Biotin = O=C1N[C@H]2[C@H](CS[C@H]2CCCCC(=O)*)N1; pS = N[C@@H](COP(=O)(O)O)C(=O)O Bounds are passed on as bounds.

With B1, the Kd in assay [1] is 2.19 µM.

Consider B2, for which the “KappEq (equilibrium)” value is 1.13 ± 0.18 µM with Whi5-NES-P peptide, 1.65 ± 0.06 µM in assay [2], 10.1 ± 5.1 µM in the assay with Swi6-NLS-P peptide and 0.48 ± 0.46 µM with Whi5-NLS-P peptide. Further, the “KappK (kinetic)” value in the assay with Whi5-NES-P peptide is 3.25 ± 0.7 µM; in assay [2], 2.58 ± 0.65 µM; with Swi6-NLS-P peptide, 7.25 ± 4.63 µM; in the assay with Whi5-NLS-P peptide, 2.87 ± 0.82 µM.

For the molecule B3, the off-rate (koff) in assay [3] is 0.254 s⁻¹. The Kd in assay [1] is 8.67 µM.

In the case of B4, the Kd in assay [1] is more than 25 µM.

Regarding B5, in assay [1], the Kd was more than 1500 µM.

As to B6, in assay [1], the Kd was more than 100 µM.

In the case of B7, the Kd in assay [1] was 2.12 µM.

Regarding B8, in assay [1], the Kd was 1.67 µM.

On to B9, for which the Kd in assay [1] was more than 300 µM.
